Assay results taken from patent publication US10131691B2, “Compositions and methods for specific regulation of pyruvate dehydrogenase kinase” (THE BOARD OF TRUSTEES OF THE LELAND STANFORD JUNIOR …, priority 2011, dated 2018).
No end group written: not given here.

Tests used:
[1] = molecular target: βIPKC (Homo sapiens, UniProt P05771); test: Proteinase K sensitivity of βIPKC; type: binding
[2] = molecular target: T1, εPKC (Homo sapiens, UniProt Q02156); test: Proteinase K sensitivity of εPKC; type: binding
T1 sequence (Q02156 1-737): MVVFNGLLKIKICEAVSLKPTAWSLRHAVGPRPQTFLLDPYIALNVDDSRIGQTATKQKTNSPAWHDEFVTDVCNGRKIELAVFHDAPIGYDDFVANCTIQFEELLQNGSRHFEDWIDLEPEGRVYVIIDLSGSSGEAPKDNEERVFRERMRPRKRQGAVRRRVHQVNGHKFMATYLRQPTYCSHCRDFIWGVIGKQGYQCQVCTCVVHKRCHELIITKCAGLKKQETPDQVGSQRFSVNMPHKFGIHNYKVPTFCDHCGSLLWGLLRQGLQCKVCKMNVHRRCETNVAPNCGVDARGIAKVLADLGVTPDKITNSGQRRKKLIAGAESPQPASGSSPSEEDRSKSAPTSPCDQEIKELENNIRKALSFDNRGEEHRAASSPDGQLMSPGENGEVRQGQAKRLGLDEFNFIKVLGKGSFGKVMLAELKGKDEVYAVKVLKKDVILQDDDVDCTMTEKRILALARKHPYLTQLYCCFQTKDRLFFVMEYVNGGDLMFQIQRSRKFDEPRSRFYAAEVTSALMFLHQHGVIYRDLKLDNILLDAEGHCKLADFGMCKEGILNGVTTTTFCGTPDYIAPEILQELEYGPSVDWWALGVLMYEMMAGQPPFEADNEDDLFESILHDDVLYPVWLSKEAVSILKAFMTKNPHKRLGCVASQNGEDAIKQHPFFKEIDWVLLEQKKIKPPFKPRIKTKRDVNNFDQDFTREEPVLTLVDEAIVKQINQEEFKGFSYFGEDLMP

[3] = tested on: Drp1; test: Drp1 phosphorylation in hearts subjected to I/R; parameters: species or system rat
Procedure: An ex vivo model of acute ischemic heart damage was used, which involves a 30 min equilibration period, followed by 30 min of global ischemia, which in turn is followed by 60 min of reperfusion. The hearts were perfused with 1 μM TAT or TAT-conjugated peptide. Normoxic control hearts were subjected to 90 min perfusion in the absence of ischemia. Coronary effluent was collected to determine creatine phosphokinase (CPK) release during the first 30 min of the reperfusion period. At the end of the reperfusion period, hearts were sliced into 1-mm-thick transverse sections and incubated in triphenyltetrazolium chloride solution (TTC, 1% in phosphate buffer, pH 7.4) at 37° C. for 15 min. Infarct size was expressed as a percentage of the risk zone (equivalent to total LV muscle mass) (methods described in Brandman et al., 2007, J. Biol. Chem., 282:4113-4123; Inagaki et al., 2003, Circulation, 108:869-875).

Chain of βIPKC (P05771 whole entry): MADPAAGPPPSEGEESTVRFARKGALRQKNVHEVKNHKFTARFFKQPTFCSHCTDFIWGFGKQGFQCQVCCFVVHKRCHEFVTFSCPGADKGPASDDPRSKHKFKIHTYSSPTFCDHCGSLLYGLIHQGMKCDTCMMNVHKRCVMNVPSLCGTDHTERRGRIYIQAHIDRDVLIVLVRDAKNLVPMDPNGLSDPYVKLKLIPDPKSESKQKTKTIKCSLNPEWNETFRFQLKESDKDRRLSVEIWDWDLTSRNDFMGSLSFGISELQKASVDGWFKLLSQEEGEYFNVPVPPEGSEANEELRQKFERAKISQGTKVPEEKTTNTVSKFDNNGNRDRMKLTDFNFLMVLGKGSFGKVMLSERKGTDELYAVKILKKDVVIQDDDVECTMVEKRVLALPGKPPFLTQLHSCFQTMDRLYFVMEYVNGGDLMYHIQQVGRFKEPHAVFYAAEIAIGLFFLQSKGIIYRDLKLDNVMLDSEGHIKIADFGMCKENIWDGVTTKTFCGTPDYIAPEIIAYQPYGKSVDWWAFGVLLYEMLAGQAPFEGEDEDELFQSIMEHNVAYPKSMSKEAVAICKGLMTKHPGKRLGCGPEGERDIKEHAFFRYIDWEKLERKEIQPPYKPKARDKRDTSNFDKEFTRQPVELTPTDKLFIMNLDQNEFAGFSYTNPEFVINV

ALSTER (not fully specified (C-terminus); also: TAT47-57 conjugated via disulfide) [ΨPDK, for cells and hearts conjugated to TAT47-57 via disulfide bond]
sensitivity of βIPKC to proteolysis by PK [1]: unaffected | sensitivity of εPKC to proteolysis by PK [2]: unaffected | Drp1 phosphorylation [3]: caused an increase of Drp1 phosphorylation
